IC50 data for 9 molecules are collected here from US20190225650A1, “PEPTIDOMIMETIC MACROCYCLES AND USE THEREOF IN REGULATING HIF1ALPHA” (AILERON THERAPEUTICS, INC., priority 2013, published 2019).

In this experiment the target is T1, His6-tagged p300 (AA 323-423) (UniProt Q09472 323-423).
T1 construct: range 323-423; also called p300-CH; not shown: His6 tag
Kind of experiment: TR-FRET HIF1a/p300 displacement; grade = IC50 >700 nM. The gist of the method: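 Competitor peptides were added to the HIF1α CTAD/p300 complex (300 nM final) in 150 mM NaCl, 20 mM HEPES pH 7.4, 7.5 mM CHAPS and 1 mM DTT for 1 h at room temperature. Anti-Flag-K (0.5 μM) and anti-6×His-D2 (4 nM) then followed for 2 h. IC50 came from a one-site logIC50 fit of the donor/acceptor ratio.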
A general note: Time-resolved FRET reads energy transfer from a long-lived donor to a nearby acceptor.

Bridge positions count the residues as written; N and C are the ends. Square brackets hold non-standard residues; d marks the D form. S5 = C=CCCC[C@](C)(N)C(=O)O; Nle = CCCC[C@H](N)C(=O)O; Dap = NC[C@H](N)C(=O)O

T1 sequence (Q09472 323-423 limits assumed): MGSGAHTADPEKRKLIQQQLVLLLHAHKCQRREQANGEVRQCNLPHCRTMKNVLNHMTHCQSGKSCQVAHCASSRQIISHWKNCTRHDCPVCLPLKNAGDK

B1: SP-48 (peptide)
peptide: Ac-FIDEESL[Nle][S5]LVI[S5][Nle]ALDRI-NH2
modifications: staple 9-13
SMILES: CCCC[C@H](NC(=O)[C@H](CC(C)C)NC(=O)[C@H](CO)NC(=O)[C@H](CCC(=O)O)NC(=O)[C@H](CCC(=O)O)NC(=O)[C@H](CC(=O)O)NC(=O)[C@@H](NC(=O)[C@H](Cc1ccccc1)NC(C)=O)[C@@H](C)CC)C(=O)N[C@@]1(C)CCCC=CCCC[C@@](C)(C(=O)N[C@@H](CCCC)C(=O)N[C@@H](C)C(=O)N[C@@H](CC(C)C)C(=O)N[C@@H](CC(=O)O)C(=O)N[C@@H](CCCNC(=N)N)C(=O)N[C@H](C(N)=O)[C@@H](C)CC)NC(=O)[C@H]([C@@H](C)CC)NC(=O)[C@H](C(C)C)NC(=O)[C@H](CC(C)C)NC1=O
For orientation: IC50 means the concentration needed to halve the response being measured. Read a high IC50 as a need for much substance. B1: the IC50 is more than 700 nM.

B2: SP-49 (peptide)
peptide: Ac-FIDEEVS[Nle][S5]LVI[S5][Nle]ALDRI-NH2
modifications: staple 9-13
SMILES: CCCC[C@H](NC(=O)[C@H](CO)NC(=O)[C@@H](NC(=O)[C@H](CCC(=O)O)NC(=O)[C@H](CCC(=O)O)NC(=O)[C@H](CC(=O)O)NC(=O)[C@@H](NC(=O)[C@H](Cc1ccccc1)NC(C)=O)[C@@H](C)CC)C(C)C)C(=O)N[C@@]1(C)CCCC=CCCC[C@@](C)(C(=O)N[C@@H](CCCC)C(=O)N[C@@H](C)C(=O)N[C@@H](CC(C)C)C(=O)N[C@@H](CC(=O)O)C(=O)N[C@@H](CCCNC(=N)N)C(=O)N[C@H](C(N)=O)[C@@H](C)CC)NC(=O)[C@H]([C@@H](C)CC)NC(=O)[C@H](C(C)C)NC(=O)[C@H](CC(C)C)NC1=O
Turning to B2, the IC50 was more than 700 nM.

B3: SP-69 (peptide)
peptide: Ac-FIDEQVL[Nle][S5]LVI[S5][Nle]ALDRI-NH2
modifications: staple 9-13
SMILES: CCCC[C@H](NC(=O)[C@H](CC(C)C)NC(=O)[C@@H](NC(=O)[C@H](CCC(N)=O)NC(=O)[C@H](CCC(=O)O)NC(=O)[C@H](CC(=O)O)NC(=O)[C@@H](NC(=O)[C@H](Cc1ccccc1)NC(C)=O)[C@@H](C)CC)C(C)C)C(=O)N[C@@]1(C)CCCC=CCCC[C@@](C)(C(=O)N[C@@H](CCCC)C(=O)N[C@@H](C)C(=O)N[C@@H](CC(C)C)C(=O)N[C@@H](CC(=O)O)C(=O)N[C@@H](CCCNC(=N)N)C(=O)N[C@H](C(N)=O)[C@@H](C)CC)NC(=O)[C@H]([C@@H](C)CC)NC(=O)[C@H](C(C)C)NC(=O)[C@H](CC(C)C)NC1=O
In turn, B3 returned an IC50 of more than 700 nM.

B4: SP-58 (peptide)
peptide: Ac-FIDEEVL[Nle][S5]LVI[S5][Nle]ALDSI-NH2
modifications: staple 9-13
SMILES: CCCC[C@H](NC(=O)[C@H](CC(C)C)NC(=O)[C@@H](NC(=O)[C@H](CCC(=O)O)NC(=O)[C@H](CCC(=O)O)NC(=O)[C@H](CC(=O)O)NC(=O)[C@@H](NC(=O)[C@H](Cc1ccccc1)NC(C)=O)[C@@H](C)CC)C(C)C)C(=O)N[C@@]1(C)CCCC=CCCC[C@@](C)(C(=O)N[C@@H](CCCC)C(=O)N[C@@H](C)C(=O)N[C@@H](CC(C)C)C(=O)N[C@@H](CC(=O)O)C(=O)N[C@@H](CO)C(=O)N[C@H](C(N)=O)[C@@H](C)CC)NC(=O)[C@H]([C@@H](C)CC)NC(=O)[C@H](C(C)C)NC(=O)[C@H](CC(C)C)NC1=O
In the case of B4, the IC50 was more than 700 nM.

B5: SP-52 (peptide)
peptide: Ac-FIDEEVL[Nle][S5]LSI[S5][Nle]ALDRI-NH2
modifications: staple 9-13
SMILES: CCCC[C@H](NC(=O)[C@H](CC(C)C)NC(=O)[C@@H](NC(=O)[C@H](CCC(=O)O)NC(=O)[C@H](CCC(=O)O)NC(=O)[C@H](CC(=O)O)NC(=O)[C@@H](NC(=O)[C@H](Cc1ccccc1)NC(C)=O)[C@@H](C)CC)C(C)C)C(=O)N[C@@]1(C)CCCC=CCCC[C@@](C)(C(=O)N[C@@H](CCCC)C(=O)N[C@@H](C)C(=O)N[C@@H](CC(C)C)C(=O)N[C@@H](CC(=O)O)C(=O)N[C@@H](CCCNC(=N)N)C(=O)N[C@H](C(N)=O)[C@@H](C)CC)NC(=O)[C@H]([C@@H](C)CC)NC(=O)[C@H](CO)NC(=O)[C@H](CC(C)C)NC1=O
On to B5, for which the IC50 was more than 700 nM.

B6: SP-63 (peptide)
peptide: Ac-FIDE[Dap]VL[Nle][S5]LVI[S5][Nle]ALDRI-NH2
modifications: staple 9-13
SMILES: CCCC[C@H](NC(=O)[C@H](CC(C)C)NC(=O)[C@@H](NC(=O)[C@H](CN)NC(=O)[C@H](CCC(=O)O)NC(=O)[C@H](CC(=O)O)NC(=O)[C@@H](NC(=O)[C@H](Cc1ccccc1)NC(C)=O)[C@@H](C)CC)C(C)C)C(=O)N[C@@]1(C)CCCC=CCCC[C@@](C)(C(=O)N[C@@H](CCCC)C(=O)N[C@@H](C)C(=O)N[C@@H](CC(C)C)C(=O)N[C@@H](CC(=O)O)C(=O)N[C@@H](CCCNC(=N)N)C(=O)N[C@H](C(N)=O)[C@@H](C)CC)NC(=O)[C@H]([C@@H](C)CC)NC(=O)[C@H](C(C)C)NC(=O)[C@H](CC(C)C)NC1=O
For B6, the IC50 is more than 700 nM.

B7: SP-60 (peptide)
peptide: Ac-FIDEEVLA[S5]LVI[S5]AALD-NH2
modifications: staple 9-13
SMILES: CC[C@H](C)[C@H](NC(=O)[C@H](Cc1ccccc1)NC(C)=O)C(=O)N[C@@H](CC(=O)O)C(=O)N[C@@H](CCC(=O)O)C(=O)N[C@@H](CCC(=O)O)C(=O)N[C@H](C(=O)N[C@@H](CC(C)C)C(=O)N[C@@H](C)C(=O)N[C@@]1(C)CCCC=CCCC[C@@](C)(C(=O)N[C@@H](C)C(=O)N[C@@H](C)C(=O)N[C@@H](CC(C)C)C(=O)N[C@@H](CC(=O)O)C(N)=O)NC(=O)[C@H]([C@@H](C)CC)NC(=O)[C@H](C(C)C)NC(=O)[C@H](CC(C)C)NC1=O)C(C)C
As to B7, the IC50 was more than 700 nM.

B8: SP-50 (peptide)
peptide: Ac-FIDEEVLS[S5]LVI[S5][Nle]ALDRI-NH2
modifications: staple 9-13
SMILES: CCCC[C@H](NC(=O)[C@]1(C)CCCC=CCCC[C@](C)(NC(=O)[C@H](CO)NC(=O)[C@H](CC(C)C)NC(=O)[C@@H](NC(=O)[C@H](CCC(=O)O)NC(=O)[C@H](CCC(=O)O)NC(=O)[C@H](CC(=O)O)NC(=O)[C@@H](NC(=O)[C@H](Cc2ccccc2)NC(C)=O)[C@@H](C)CC)C(C)C)C(=O)N[C@@H](CC(C)C)C(=O)N[C@@H](C(C)C)C(=O)N[C@@H]([C@@H](C)CC)C(=O)N1)C(=O)N[C@@H](C)C(=O)N[C@@H](CC(C)C)C(=O)N[C@@H](CC(=O)O)C(=O)N[C@@H](CCCNC(=N)N)C(=O)N[C@H](C(N)=O)[C@@H](C)CC
Take B8: the IC50 is more than 700 nM.

B9: SP-62 (peptide)
peptide: Ac-FI[Dap]EEVL[Nle][S5]LVI[S5][Nle]ALDRI-NH2
modifications: staple 9-13
SMILES: CCCC[C@H](NC(=O)[C@H](CC(C)C)NC(=O)[C@@H](NC(=O)[C@H](CCC(=O)O)NC(=O)[C@H](CCC(=O)O)NC(=O)[C@H](CN)NC(=O)[C@@H](NC(=O)[C@H](Cc1ccccc1)NC(C)=O)[C@@H](C)CC)C(C)C)C(=O)N[C@@]1(C)CCCC=CCCC[C@@](C)(C(=O)N[C@@H](CCCC)C(=O)N[C@@H](C)C(=O)N[C@@H](CC(C)C)C(=O)N[C@@H](CC(=O)O)C(=O)N[C@@H](CCCNC(=N)N)C(=O)N[C@H](C(N)=O)[C@@H](C)CC)NC(=O)[C@H]([C@@H](C)CC)NC(=O)[C@H](C(C)C)NC(=O)[C@H](CC(C)C)NC1=O
Consider B9, for which the IC50 is more than 700 nM.
